Reference: article PMC2193136

Molecular target: HLA-DR2 (DRA1*0101/DRB1*1501) molecules, detergent-solubilized, purified from S2 cells (human)
Assay: peptide binding inhibition assay

Substance | IC50 [nM]
human PLP peptide PLP 40–60 | 200
HLA-DQw6 peptide corresponding to residues 43–58 | 70
human PLP peptide PLP 95–116 | 1480

Molecular target: HLA-DR2 (DRA1*0101/DRB1*1501) molecules, detergent-solubilized, purified from S2 cells (human)
Assay: competition peptide-binding assay

Substance | IC50 [nM]
MBP 85–99 analogue 92 (F→Y) (peptide) | 12
MBP 85–99 analogue 98 (P→A) (peptide) | 5
MBP 85–99 analogue 86 (N→A) (peptide) | 7
MBP 85–99 analogue 85 (E→A) (peptide) | 7
MBP 85–99 analogue 91 (F→A) (peptide) | 10
MBP 85–99 analogue 96 (V→A) (peptide) | 4
MBP 85–99 analogue 93 (K→A) (peptide) | 4
MBP 85–97 truncated peptide | 15
MBP 86–99 truncated peptide (row label printed as (85–99)) | 3
MBP 85–96 truncated peptide | 20
MBP 85–99 peptide | 5
MBP 85–99 analogue 97 (T→A) (peptide) | 4
MBP 88–99 truncated peptide | 30
MBP 85–99 analogue 94 (N→A) (peptide) | 4
MBP 85–99 analogue 89 (V→A) (peptide) | 50
MBP 85–99 analogue 90 (H→A) (peptide) | 10
MBP 85–99 analogue 87 (P→A) (peptide) | 10
MBP 85–99 analogue 88 (V→A) (peptide) | 10
MBP 85–99 analogue 95 (I→A) (peptide) | 4
MBP 85–99 analogue 99 (R→A) (peptide) | 5
MBP 87–99 truncated peptide | 5
MBP 85–98 truncated peptide | 4
